In article PMC3288515:
Like-named read-outs stand apart in the source and are kept apart here.

How the values were obtained:
Assay in all cases: EMSA
[1] = target: T1, STAT5 (STAT5a cDNA used for the retroviral construct) (UniProt P42230 1-793)
PU.1 [2] = target: T2, PU.1 (UniProt P17433 1-272)
PU.1 [3] = target: T2, PU.1; remark: listed apart in the source
[4] = target: T1, STAT5 (STAT5a cDNA used for the …); remark: listed apart in the source

T1 sequence (P42230 whole entry): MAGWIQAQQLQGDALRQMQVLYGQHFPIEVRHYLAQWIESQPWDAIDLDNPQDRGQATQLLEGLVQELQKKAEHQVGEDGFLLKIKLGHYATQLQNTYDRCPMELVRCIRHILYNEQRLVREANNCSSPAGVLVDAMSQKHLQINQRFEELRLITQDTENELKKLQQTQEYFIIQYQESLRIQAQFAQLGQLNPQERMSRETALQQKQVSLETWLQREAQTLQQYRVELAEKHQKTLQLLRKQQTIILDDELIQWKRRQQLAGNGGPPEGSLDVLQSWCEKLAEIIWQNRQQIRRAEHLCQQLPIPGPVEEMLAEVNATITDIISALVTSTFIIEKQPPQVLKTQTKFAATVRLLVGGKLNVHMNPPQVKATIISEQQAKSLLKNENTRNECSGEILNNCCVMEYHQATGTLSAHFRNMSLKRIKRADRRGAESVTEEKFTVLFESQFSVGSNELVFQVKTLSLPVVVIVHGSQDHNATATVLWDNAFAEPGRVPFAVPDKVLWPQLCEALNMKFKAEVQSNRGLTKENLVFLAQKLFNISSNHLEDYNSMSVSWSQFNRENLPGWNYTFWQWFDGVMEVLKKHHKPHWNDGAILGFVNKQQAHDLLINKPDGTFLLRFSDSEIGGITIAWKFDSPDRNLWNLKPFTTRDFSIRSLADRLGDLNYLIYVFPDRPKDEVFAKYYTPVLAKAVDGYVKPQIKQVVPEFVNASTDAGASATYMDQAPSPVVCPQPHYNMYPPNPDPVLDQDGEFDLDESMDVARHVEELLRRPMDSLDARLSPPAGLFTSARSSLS

B1: SV40 PU.1 probe (dsDNA)
DNA 1: TGAAATAACCTCTGAAAGAGGAACTTGGTTAGGTA
DNA 2: TACCTAACCAAGTTCCTCTTTCAGAGGTTATTTCA
B1: no binding [1]; binds (PU.1 [2]).

B2: κE3' PU.1-STAT5 probe (dsDNA)
DNA 1: CTTTGAGGAACTGAAAACAGAACCT
DNA 2: AGGTTCTGTTTTCAGTTCCTCAAAG
B2: binds (PU.1 [3]); binds [4].
